Paper doi:10.1101/2020.12.22.423932

Target: human RPN2, wild type, full length (human) (UniProt Q99460)
Experiment: MST

Chain of human RPN2, wild type, full length (human) (Q99460 whole entry): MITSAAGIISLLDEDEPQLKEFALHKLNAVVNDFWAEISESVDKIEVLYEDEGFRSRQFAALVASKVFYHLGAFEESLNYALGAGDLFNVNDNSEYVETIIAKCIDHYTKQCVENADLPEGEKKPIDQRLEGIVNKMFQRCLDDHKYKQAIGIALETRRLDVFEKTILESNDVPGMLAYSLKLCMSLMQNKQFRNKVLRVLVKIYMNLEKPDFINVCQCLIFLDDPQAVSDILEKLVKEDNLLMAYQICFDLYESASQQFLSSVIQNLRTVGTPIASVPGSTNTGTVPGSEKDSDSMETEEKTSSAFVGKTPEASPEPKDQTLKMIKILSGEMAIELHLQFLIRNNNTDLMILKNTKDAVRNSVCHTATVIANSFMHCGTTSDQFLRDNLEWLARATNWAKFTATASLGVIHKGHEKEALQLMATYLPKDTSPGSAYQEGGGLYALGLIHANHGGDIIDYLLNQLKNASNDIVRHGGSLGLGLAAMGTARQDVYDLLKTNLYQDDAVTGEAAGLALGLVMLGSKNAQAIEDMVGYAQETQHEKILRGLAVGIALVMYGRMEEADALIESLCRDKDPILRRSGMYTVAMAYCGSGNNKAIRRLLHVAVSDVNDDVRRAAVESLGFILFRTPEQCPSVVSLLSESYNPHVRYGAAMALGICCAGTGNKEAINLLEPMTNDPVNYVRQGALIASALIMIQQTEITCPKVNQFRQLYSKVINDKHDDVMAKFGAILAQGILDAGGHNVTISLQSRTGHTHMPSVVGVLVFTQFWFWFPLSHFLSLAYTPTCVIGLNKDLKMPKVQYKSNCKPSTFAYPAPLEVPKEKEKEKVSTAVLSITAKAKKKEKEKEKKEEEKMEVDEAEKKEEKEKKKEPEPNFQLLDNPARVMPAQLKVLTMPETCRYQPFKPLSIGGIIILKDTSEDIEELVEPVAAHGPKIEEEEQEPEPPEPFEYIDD

mono-ubiquitin (from UniProt P0CG48 1-76) (natural protein; other documents disagree on this pair)
Kd: 2120 µM
